According to patent US11306156:

Assays:
[1] = target: tissue factor (TF) antigen (UniProt P13726); assay: SPR, His-captured Fab, TF as analyte, 1:1 fit
[2] = target: tissue factor (TF) antigen (UniProt P13726); assay: SPR, His-captured Fab, TF as analyte; against wild-type D3H44 Fab
[3] = target: tissue factor (TF) antigen (UniProt P13726); assay: SPR (ProteOn XPR36), Fab captured on anti-penta-His surface, TF as analyte, 1:1 fit
[4] = target: tissue factor (TF) antigen (UniProt P13726); assay: SPR (ProteOn XPR36), Fab captured on anti-penta-His surface, TF as analyte; reference is the wild-type D3H44 Fab
[5] = target: tissue factor (TF) antigen (UniProt P13726); assay: SPR (ProteOn XPR36), His-tagged Fab captured on anti-penta His, TF as analyte, 1:1 fit
[6] = target: tissue factor (TF) antigen (UniProt P13726); assay: SPR (ProteOn XPR36), His-tagged Fab captured on anti-penta His, TF as analyte; against wild-type D3H44 Fab

tissue factor (TF) antigen, sequence (P13726 33-251 limits assumed): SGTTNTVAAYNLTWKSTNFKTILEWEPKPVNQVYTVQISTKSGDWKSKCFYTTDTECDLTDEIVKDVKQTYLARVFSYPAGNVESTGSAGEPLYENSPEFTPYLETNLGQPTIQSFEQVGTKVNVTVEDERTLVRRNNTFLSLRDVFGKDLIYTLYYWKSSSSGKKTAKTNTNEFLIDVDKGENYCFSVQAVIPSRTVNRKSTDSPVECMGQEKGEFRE

Substance	Kd [1] [nM]	Change in median values of KD compared to wild type (-(log(KD design)-log(KD wt))) [2] [log]	Kd [3] [nM]	Change in median values of KD of h1l1 Fab heterodimer compared to wild type (-(log(KD design)-log(KD wt))) [4]	other results
D3H44 Fab heterodimer H1L1 of LCCA Set # 9052, 9051 and 9050 (H1 A139G_F174V_V190A; L1 S131T_L135F_S176F_T178F)	0.14	0.06	–	–	–
D3H44 Fab heterodimer H1L1 of LCCA Set # 9062 and 9063 (H1 A139W_S188L; L1 F116A_L135V)	0.17	-0.02	–	–	–
D3H44 Fab heterodimer H1L1 of LCCA Set # 9071 (H1 F174V; L1 S131T_S176F_T178F)	0.21	-0.12	–	–	–
D3H44 Fab heterodimer H1L1 of LCCA Set # 9099 (H1 L124A_Q179K; L1 Q124E_V133W_S176T_T178L_T180E)	0.19	-0.09	–	–	–
D3H44 Fab heterodimer H1L1 of LCCA Set # 9731 (H1 L143K; L1 Q124E_V133D)	0.28	-0.26	–	–	–
D3H44 Fab heterodimer H1L1 of LCCA Set # 9732 and 9733 (H1 L143K; L1 Q124E_V133D_S176L)	0.28	-0.25	–	–	–
D3H44 Fab heterodimer H1L1 of LCCA Set # 9769, 9767, 9763, 9759, 9761, 9760 and 9773 (H1 Q179K; L1 Q124E_Q160E_T180E)	0.32	-0.31	–	–	–
D3H44 Fab heterodimer H1L1 of LCCA set 9181 (H1 L124E_L143D_K145M; L1 Q124K_V133G_S176R_T178K)	–	–	0.22	-0.15	–
D3H44 Fab heterodimer H1L1 of LCCA set 9188 (H1 L124E_L143D_K145M; L1 Q124K_V133G_S176R_T178R)	–	–	0.13	0.09	–
D3H44 Fab heterodimer H1L1 of LCCA set 9226 (H1 L124E_L143D_K145T; L1 Q124K_V133G_S176R_T178R)	–	–	0.16	-0.02	–
D3H44 Fab heterodimer H1L1 of LCCA set 9361 (H1 L124R_D146N_Q179K; L1 V133G_S176D_T178E_T180E)	–	–	0.16	-0.01	–
D3H44 Fab heterodimer H1L1 of LCCA sets 9257 and 9259 (H1 L124E_L143E_K145M; L1 Q124K_V133G_S176R_T178K)	–	–	0.24	-0.19	–
D3H44 Fab heterodimer H1L1 of LCCA sets 9523 and 9524 (H1 L124R_S186R; L1 V133G_S176D_T178D)	–	–	0.2	-0.1	–
D3H44 Fab heterodimer H1L1 of LCCA sets 9536 and 9526 (H1 L124R_S186R; L1 V133G_S176D_T178D_T180E)	–	–	0.17	-0.04	–
D3H44 Fab heterodimer, H1 D146G_H172R_Q179K / L1 Q38E_Q124E_Q160E_T180E (H1L1 Fab of LCCA Set # 9064)	–	–	–	–	Kd [5]: 0.17 nM; Change in median values of KD of h1|1 Fab heterodimer compared to wild type (-(log(KD design)-log(KD wt))) [6]: -0.05
D3H44 Fab heterodimer, H1 D146G_Q179K / L1 Q38E_Q124E_Q160E_T180E (H1L1 Fab of LCCA Set # 9065)	–	–	–	–	Kd [5]: 0.18 nM; Change in median values of KD of h1|1 Fab heterodimer compared to wild type (-(log(KD design)-log(KD wt))) [6]: -0.05
D3H44 Fab heterodimer, H1 H172R_S186R / L1 Q38E_Q124E_Q160E_T180E (H1L1 Fab of LCCA Set # 9075)	–	–	–	–	Kd [5]: 0.17 nM; Change in median values of KD of h1|1 Fab heterodimer compared to wild type (-(log(KD design)-log(KD wt))) [6]: -0.03
D3H44 Fab heterodimer, H1 L124E_L143D_K145M / L1 Q124K_V133G_Q160K_S176R (H1L1 Fab of LCCA Set # 9170, 9171 and 9172)	–	–	–	–	Kd [5]: 0.27 nM; Change in median values of KD of h1|1 Fab heterodimer compared to wild type (-(log(KD design)-log(KD wt))) [6]: -0.24
